In patent US20230235304:
Changes are numbered by the printed parent chain.

Legend:
Experiment in all cases: cell_activity
Conditions in all cases: PAM 5'-GCTG-3'; HEK293T; averaged over AAVS1, VEGFA, EMX1 targets
[1] = system: T1, CRISPR nuclease variant D509R D509R (synthetic construct)
T1 sequence: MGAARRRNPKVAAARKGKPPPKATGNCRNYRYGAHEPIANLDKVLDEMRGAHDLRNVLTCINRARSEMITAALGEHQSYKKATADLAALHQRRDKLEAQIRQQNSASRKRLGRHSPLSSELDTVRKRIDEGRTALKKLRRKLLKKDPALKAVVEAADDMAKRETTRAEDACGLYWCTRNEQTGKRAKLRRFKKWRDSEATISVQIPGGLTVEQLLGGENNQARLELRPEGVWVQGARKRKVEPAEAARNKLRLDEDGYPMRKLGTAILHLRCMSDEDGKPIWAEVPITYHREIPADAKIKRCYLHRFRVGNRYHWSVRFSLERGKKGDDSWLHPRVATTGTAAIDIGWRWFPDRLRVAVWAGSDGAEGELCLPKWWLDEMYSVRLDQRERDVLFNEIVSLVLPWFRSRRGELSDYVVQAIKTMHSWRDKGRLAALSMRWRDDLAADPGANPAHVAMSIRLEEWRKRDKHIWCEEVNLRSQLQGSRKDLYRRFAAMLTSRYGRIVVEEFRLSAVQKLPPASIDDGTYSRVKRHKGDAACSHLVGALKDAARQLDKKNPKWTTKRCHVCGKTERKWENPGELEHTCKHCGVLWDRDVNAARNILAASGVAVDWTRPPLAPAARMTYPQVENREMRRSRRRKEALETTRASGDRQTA

[2] = system: T2, CRISPR nuclease variant D535G,L516R,I521R D535G,L516R,I521R (synthetic construct)
T2 sequence: T1 sequence with R509D, L516R, I521R, D535G

[3] = system: T3, CRISPR nuclease variant S511R S511R (synthetic construct)
T3 sequence: T1 sequence with R509D, S511R

[4] = system: T4, CRISPR nuclease variant S78K,E198R,R354G S78K,E198R,R354G (synthetic construct)
T4 sequence: T1 sequence with S78K, E198R, R354G, R509D

Sequence: GGUCCCAUCGGAACGGGUUGUGGUUCCGACGGAGGGAUACAUUGGUGGGG / GGAGGGATACATTGGTGGGG / CCCCACCAATGTATCCCTCC [AAVS1 crRNA (Table 5) ; AAVS1 target (Table 5)]
- binding signal (fold indels vs WT) [1]: 3.91
- binding signal (fold indels vs WT) [2]: 3.59
- binding signal (fold indels vs WT) [3]: 3.71
- binding signal (fold indels vs WT) [4]: 4.14
